Our source for the EC50 values is patent US11634477 (dated 2023).

B1: C129 (antibody, V domains shown)
VH: QVQLVESGGGVVQPGRSLRLSCAASGFTFSSYGMNWVRQAPGKGLEWVAVISYDGSNTYYTDSVKGRFTISRDNSKNTLYLQMNSLRVDDTATYYCAKGPRFGWSYRGGSGFDIWGQGTMVTVSS
VL: DIQMTQSPSSLSASVGDRVTITCQASQDISNYLNWYQQKPGKAPKLLIYDASNLETGVPSRFSGSESGTDFTFTISSLQPEDIATYYCQQYDNLPITFGQGTRLEIK
B2: C149 (antibody, V domains shown)
VH: QVQLVESGGGVVQPGRSLRLSCAASGFTFSTYGMHWVRQAPGKGLEWVAVISYDGSNKYFADSVKGRFTISRDNSKNTLYLQMNSLRPEDTAVYYCAKVGMEYSSGWYGEEIDFWGQGTLVTVSS
VL: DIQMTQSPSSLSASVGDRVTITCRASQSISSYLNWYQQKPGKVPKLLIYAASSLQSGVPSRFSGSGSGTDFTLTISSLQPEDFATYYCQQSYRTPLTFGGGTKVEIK
B3: C036 (antibody, V domains shown)
VH: QVQLQQWGAGLLKPSETLSRTCAVFGGSFTNYYWSWIRQSPGKGLEWIGEINDSGITNYNPSLKSRVTISVDTSKNQFSLSLRSVTAADTAVYYCARRRSFSRPSSIDYWGQGTLVTVSS
VL: not shown
B4: C212 (antibody, V domains shown)
VH: QVQLVQSGAEVKKPGASVKVSCKASGYTVTGYYIHWVRQAPGQGLEWMGWISPNSGGTNYAQKFQGWVTMTRDMSITTAYMELSRLRSDDTAVYYCARERYFDLGGMDVWGQGTTVTVSS
VL: LTQPASVSGSPGQSITISCTGTSSDVGSYNLVSWYQQHPGKAPKLMIYEDSKRPSGVSNRFSGSKSGNTASLTISGLQAEDEADYYCCSYAGSSTRLFGGGTKLTVL
B5: C163 (antibody, V domains shown)
VH: QVQLQQWGAGLLKPSETLSLTCAVSGGSLSGFYWTWIRQPPGKGLEWIGETNHFGSTDYKPSLKSRVTISVDMSRNQFSLKVTSVTAADTAVYYCARKPLLHSDLSPGAFDIWGQGTMVTVSS
VL: EIVLTQSPGTLSLSPGERATLSCRASQTVSANYLAWYQQKAGQAPRLLIYGASKRATGIPDRFSGSGSGTDFTLSISRLEPEDFAVYYCQQYVTTPRTFGGGTKVEI
B6: C162 (antibody, V domains shown)
VH: B5 VH with P61A, D72G, V85L, H102Y, L105F, I112V
VL: B5 VL with V29L, S30T, A41P, T57A, S77T, V93H
B7: C161 (antibody, V domains shown)
VH: B5 VH with K81I, V82M, P99T, H102F, L105F
VL: B5 VL with V29L, S30T, A41P, V93G
B8: C037 (antibody, V domains shown)
VH: QLVQSGPEVKKPGTSVKVSCKASGFTFTSSAMQWVRQARGQRLEWIGWIVVGSGNTNYAQKFQERVTITRDMSTSTAYMELSSLRSEDTAVYYCAAPYCSGGSCNDAFDIWGQGTMVTVSS
VL: not shown
B9: C160 (antibody, V domains shown)
VH: QVQLVQSGAEVKKPGASVKVSCKASGYTFTSYGISWVRQAPGQGLEWMGWISAYNGNTNYAQKLQGRVTMTTDTSTSTAYMELRSLRSDDTAVYYCARVPASYGDDDYYYYYGMDVWGQGTTVTVSS
VL: SYELTQPPSVSVSPGQTARITCSGDALPKQYAYWYQQKPGQAPVLVIYKDSERPSGIPERFSGSSSGTTVTLTISGVQAEDEADYYCQSADSSGTLWVFGGGTKLTVL
B10: C032 (antibody, V domains shown)
VH: EVQLVQSGAEVKKPGESLKISCKGSGYSFTSYWIGWVRQMPGKGLEWMGIIYPGDSDTRYSPSFQGQVTISADKSISTAYLQWSSLKASDTAMYYCARGVAVDWYFDLWGRGTLVTVSS
VL: QSVLTQPPSVSGAPGQRVTISCTGSSSNIGAGYDVHWYQQLPGTAPKLLIYGNSNRPSGVPDRFSGSKSGTSASLAITGLQAEDEADYYCQSYDSSLSALYVFGTGTKVTVL
B11: C101 (antibody, V domains shown)
VH: QVQLVESGGGLIQPGGSLRLSCAASGFIVSSNYMSWVRQAPGKGLEWVSVIYSGGSTFYTDSVKGRFTISRDNSKNTLYLQMNSLRAEDTAVYYCVRDYGDFYFDYWGQGTLVTVSS
VL: EIVLTQSPGTLSLSPGERATLSCRASQSVSSSYLAWYQQKPGQAPRLLIYGASSRATGIPDRFSGGGSETDFTLTISRLEPEDCAVYYCQQYGSSPRTFGQGTKVEIK
B12: C038 (antibody, V domains shown)
VH: VQLVESGGGVVQPGRSLRLSCAASGFTFNRIAMYWVRQAPGKGLEWVAVISFDGSYEYYAESVKGRFAISRDNSKNTLYLQMNSLRAEDTAVYYCAKSPMGYCTNGVCYPDSWGQGTLVTVSS
VL: NFMLTQPHSVSESPGKTVTISCTGSSGSIASNYVQWYQQRPGSAPTTVIYEDTQRPSGVPDRFSGSIDSSSNSASLTISGLKTEDEADYYCQSYDINSRWVFGGGTKLTVL
B13: C106 (antibody, V domains shown)
VH: QLQLQESGPGLVKPSETLSLTCTVSGASVSSGSYYWSWIRQPPGKGLEWIGYIYYSGSTNYNPSLKSRVTISVDTSKNQFSLKLSSVTAADTAVYYCARERPGGTYSNTWYTPTDTNWFDTWGQGTLVTVSS
VL: SYELTQPPSVSVAPGKTARITCGGNNIGSKSVHWYQQKPGQAPVLVIYFDSDRPSGIPERFSGSNSGNTATLTISRVEAGDEADYYCQVWDSSRDHVVFGGGTKLTVL
B14: C040 (antibody, V domains shown)
VH: not shown
VL: B13 VL with K16Q, I47V, F49D, R94S, H96Q, V97G
B15: C152 (antibody, V domains shown)
VH: QVQLVQSGAEVKKPGASVKVSCKASGYTFTSYGISWVRQAPGQGLEWMGWISAYNGNTNYAQKLQGRVTMTTDTSTSTAYMELRSLRSDDTAVFYCARDRGGHDFWSGYGFYYYYGMDVWGQGTTVTVSS
VL: DIQMTQSPSSLSASVGDRVTITCRASQGISNYLAWYQQRPGKVPKLLIFAASTLQSGVPSRFSGSGSGTDFTLTISSLQPEDVATYYCQKYNSAPRTFGQGTKVEIK
B16: C135 (antibody, V domains shown)
VH: QVQLVESGGGVVQPGRSLRLSCAASGFTFSSYAMHWVRQAPGKGLEWVAVIPFDGRNKYYADSVTGRFTISRDNSKNTLYLQMNSLRAEDTAVYYCASSSGYLFHSDYWGQGTLVTVSS
VL: DIQMTQSPSTLSASVGDRVTITCRASQSISNWLAWFQQKPGKAPKLLIYEASSLESGVPSRFSGSGSGTEFTLTISSLQPDDFATYYCQQYNSYPWTFGQGTKVEIK

Substitutions are numbered along the chain they refer to.

The target in the first experiment is SARS-CoV-2 RBD (SARS-CoV-2, UniProt P0DTC2). Nature of the experiment: ELISA. (In an ELISA, binding on a coated surface is turned into a signal by an enzyme label.)
Molecule B1 registered an EC50 of 1.16 ng/mL.
Still for that read-out and setting: the figure for B2 is 1.79 ng/mL; for B3 it is 64.1 ng/mL; for B4 it is over 1000 ng/mL.
The molecule B5 came in with an EC50 of 1.77 ng/mL.
Same read-out and setting: then B6, with 1.18 ng/mL; and B7, with 1.63 ng/mL; and B8, with 1.93 ng/mL.
As for B9, the EC50 was determined as 2.54 ng/mL.
The same measure, in the same setting: the figure for B10 is 99.3 ng/mL; for B11 it is 1.51 ng/mL; for B12 it is 4.69 ng/mL.
For B13, the concentration giving a half-maximal response (EC50) turned out to be 19 ng/mL.
The same measure, in the same setting: the figure for B14 is 11.1 ng/mL.
As to B15, the EC50 stood at 1.88 ng/mL.

A further experiment concerns the target SARS-CoV RBD (SARS-CoV, UniProt P59594). In words: ELISA.
B4 came in with a concentration giving a half-maximal response (EC50) of over 1000 ng/mL.
On the same count and under the same terms, the figure for B16 is over 1000 ng/mL; for B11 it is over 1000 ng/mL.
On the same count and under the same terms, the figure for B13 is 107 ng/mL.

Usually EC50 stands for the concentration needed to bring the measured effect to its halfway point.
